Measurements as given in patent US20230127047A1, “SELECTIVE GIP RECEPTOR AGONISTS COMPRISING A CHELATING MOIETY FOR IMAGING AND THERAPY PURPOSES” (ANTAROS MEDICAL AB, priority 2020, published 2023).
Like-named read-outs stand apart in the source and are kept apart here. Where a SMILES comes first, the peptide text is derived from it. Where no end group is shown, it is not given here. [ ]: non-standard residue; d: D form. The star is where a group is joined. DO3A(CH2CH2SO2CH2CH2) = O=C(O)CN1CCN(CCS(=O)(=O)CC*)CCN(CC(=O)O)CCN(CC(=O)O)CC1; DOTA = O=C(O)CN1CCN(CC(=O)O)CCN(CC(=O)*)CCN(CC(=O)O)CC1; Aib = CC(C)(N)C(=O)O

What was measured:
[1] = target: human GLP-1 receptor (hGLP-1R) (Homo sapiens, UniProt P43220); experiment: cAMP response (HTRF) in PSC-HEK-293 cells expressing human GLP-1 receptor; type: cell-based
Method: (§1) Each vial contained 1.8 ml cells. The vials were slowly frozen to −80° C. in isopropanol, and then transferred in liquid nitrogen for storage.
(§2) Prior to their use, frozen cells were thawed quickly at 37° C. and washed (5 min at 900 rpm) with 20 ml cell buffer (lx HBSS; 20 mM HEPES, with 0.1% BSA).
(§3) For measurement of cAMP generation, 5 μl cells (final 5000 cells/well) and 5 μl of test compound were added to a 384-well plate, followed by incubation for 30 min at room temperature.
(§4) The cAMP generated was determined using a kit from Cisbio Corp. based on HTRF (Homogenous Time Resolved Fluorescence). The cAMP assay was performed according to manufacturer's instructions (Cisbio).
(§5) cAMP content of cells was determined using a kit from Cisbio Corp. (cat. no. 62AM4PEC) based on HTRF (Homogenous Time Resolved Fluorescence). […] Medium was then removed and cells washed with PBS lacking calcium and magnesium, followed by proteinase treatment with accutase (Sigma-Aldrich cat. no. A6964). Detached cells were washed and resuspended in assay buffer (1×HBSS; 20 mM HEPES, 0.1% BSA, 2 mM IBMX) and cellular density determined. They were then diluted to 400000 cells/ml and 25 μl-aliquots dispensed into the wells of 96-well plates. For measurement, 25 μl of test compound in assay buffer was added to the wells, followed by incubation for 30 minutes at room temperature.

[2] = target: T1, glucagon receptor (hGCGR) (Homo sapiens, UniProt P47871); experiment: cAMP response (HTRF) in PSC-HEK-293 cells expressing human glucagon receptor; type: cell-based
T1 construct: expressed in transfected cells
Method: as §1, §2, §3, §4, §5

[3] = target: T2, human GIP receptor (hGIPR) (Homo sapiens, UniProt P48546); experiment: cAMP response (HTRF) in PSC-HEK-293 cells expressing human GIP receptor; type: cell-based; conditions: from EC50 values of Table 5
T2 sequence (P48546 22-466): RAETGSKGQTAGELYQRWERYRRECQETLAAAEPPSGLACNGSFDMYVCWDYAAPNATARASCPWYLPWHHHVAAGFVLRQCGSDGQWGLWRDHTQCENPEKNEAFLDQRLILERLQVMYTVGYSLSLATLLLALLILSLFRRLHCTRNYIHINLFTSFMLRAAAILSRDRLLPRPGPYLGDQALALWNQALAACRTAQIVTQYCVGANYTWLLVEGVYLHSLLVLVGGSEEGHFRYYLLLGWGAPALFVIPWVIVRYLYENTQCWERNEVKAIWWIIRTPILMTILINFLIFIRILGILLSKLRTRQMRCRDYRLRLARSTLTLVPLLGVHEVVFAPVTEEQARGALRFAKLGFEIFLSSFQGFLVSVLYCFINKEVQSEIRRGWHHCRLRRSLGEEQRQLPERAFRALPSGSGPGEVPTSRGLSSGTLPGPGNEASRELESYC
Method: as §1, §2, §3, §4, §5

[4] = Plasma stability testing (radio-HPLC) in NHP plasma; type: in vitro ADME, cynomolgus monkey; conditions: for Intact peptide (%): NHP plasma, 37° C.
[5] = target: T3, human GIP receptor (human, UniProt P48546 22-466); experiment: cell-based or functional assay
T3 sequence (looked up): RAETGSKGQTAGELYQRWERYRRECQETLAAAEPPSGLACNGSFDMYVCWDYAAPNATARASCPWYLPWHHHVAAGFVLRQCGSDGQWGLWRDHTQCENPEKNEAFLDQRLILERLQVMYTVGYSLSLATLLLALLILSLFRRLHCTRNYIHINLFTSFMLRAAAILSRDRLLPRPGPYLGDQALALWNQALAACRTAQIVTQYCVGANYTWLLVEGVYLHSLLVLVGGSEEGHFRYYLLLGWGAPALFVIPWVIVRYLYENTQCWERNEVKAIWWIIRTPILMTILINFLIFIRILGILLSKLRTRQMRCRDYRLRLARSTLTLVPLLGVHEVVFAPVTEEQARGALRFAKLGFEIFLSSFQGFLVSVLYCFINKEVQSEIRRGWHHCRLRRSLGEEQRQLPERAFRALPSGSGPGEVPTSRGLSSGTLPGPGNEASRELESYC

T1 sequence (P47871 26-477): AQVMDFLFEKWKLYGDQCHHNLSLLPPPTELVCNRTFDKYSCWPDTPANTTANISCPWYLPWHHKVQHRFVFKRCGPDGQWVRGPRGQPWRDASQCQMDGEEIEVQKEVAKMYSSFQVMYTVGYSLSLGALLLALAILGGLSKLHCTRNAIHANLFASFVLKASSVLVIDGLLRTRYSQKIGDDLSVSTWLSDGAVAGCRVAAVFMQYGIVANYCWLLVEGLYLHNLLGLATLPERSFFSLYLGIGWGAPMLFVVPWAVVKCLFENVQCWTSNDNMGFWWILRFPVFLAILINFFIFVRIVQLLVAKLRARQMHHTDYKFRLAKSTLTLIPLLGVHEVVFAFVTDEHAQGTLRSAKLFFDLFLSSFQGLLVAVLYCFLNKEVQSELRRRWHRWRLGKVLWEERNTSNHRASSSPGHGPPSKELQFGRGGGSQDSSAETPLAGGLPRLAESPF
Sequence of human GLP-1 receptor (hGLP-1R) (P43220 24-463): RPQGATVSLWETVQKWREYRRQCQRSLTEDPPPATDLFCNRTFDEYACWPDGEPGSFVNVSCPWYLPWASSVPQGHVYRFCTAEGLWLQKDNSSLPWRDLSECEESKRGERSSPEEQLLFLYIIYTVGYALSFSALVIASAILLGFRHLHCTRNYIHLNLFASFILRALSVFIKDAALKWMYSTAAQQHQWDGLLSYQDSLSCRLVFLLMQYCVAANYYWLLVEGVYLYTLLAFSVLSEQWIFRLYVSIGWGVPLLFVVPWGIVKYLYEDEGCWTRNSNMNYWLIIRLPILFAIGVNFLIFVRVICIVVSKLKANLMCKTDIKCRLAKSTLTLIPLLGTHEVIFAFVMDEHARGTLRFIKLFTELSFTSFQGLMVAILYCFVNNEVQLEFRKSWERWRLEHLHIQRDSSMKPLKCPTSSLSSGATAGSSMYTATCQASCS

## CC[C@H](C)[C@H](NC(=O)[C@H](CO)NC(=O)[C@H](CC(C)C)NC(=O)[C@H](CC(=O)O)NC(=O)[C@H](CO)NC(=O)[C@@H](NC(=O)[C@H](Cc1ccccc1)NC(=O)[C@@H](NC(=O)CNC(=O)[C@H](CCC(=O)O)NC(=O)C(C)(C)NC(=O)[C@@H](N)Cc1ccc(O)cc1)[C@@H](C)O)[C@@H](C)CC)C(=O)N[C@@H](C)C(=O)N[C@@H](CC(C)C)C(=O)N[C@@H](CC(=O)O)C(=O)N[C@@H](CCCNC(=N)N)C(=O)N[C@H](C(=O)N[C@@H](Cc1c[nH]cn1)C(=O)N[C@@H](CCC(N)=O)C(=O)N[C@@H](CCC(=O)O)C(=O)N[C@@H](CCC(=O)O)C(=O)N[C@@H](Cc1ccccc1)C(=O)N[C@H](C(=O)N[C@@H](CCC(N)=O)C(=O)N[C@@H](Cc1c[nH]c2ccccc12)C(=O)N[C@@H](CC(C)C)C(=O)N[C@@H](CC(C)C)C(=O)N[C@@H](C)C(=O)NCC(=O)NCC(=O)N[C@@H](CSCCS(=O)(=O)CCN1CCN(CC(=O)O)CCN(CC(=O)O)CCN(CC(=O)O)CC1)C(N)=O)[C@@H](C)CC)[C@@H](C)CC [SEQ ID NO: 5, Y-Aib-EGTFISDLSIALDRIHQEEFIQWLLAGGC(VS-DO3A)-NH2] (H-Y[Aib]EGTFISDLSIALDRIHQEEFIQWLLAGGC(DO3A(CH2CH2SO2CH2CH2))-NH2; N-terminus assumed)
[1]
  EC50: > 10 nM
[2]
  EC50: > 10 nM
[3]
  potency (ability to activate the human GIP receptor) compared to native GIP or GIP(1-30): lower potency

## SEQ ID NOs: 3 (Y[Aib]EGTFISDLSIALDRIHQEEFIEWLLAGGK(DOTA)-NH2)
[3]
  potency (ability to activate the human GIP receptor) compared to native GIP or GIP(1-30): lower potency

## Y-Aib-EGTFISDLSIALDRIHQEEFIEWLLAGGK(DOTA(Ga))-NH2 (Y[Aib]EGTFISDLSIALDRIHQEEFIEWLLAGGK(DOTA)-NH2; also: Ga (68Ga) complexed in DOTA on Lys31) [SEQ ID NO: 4]
[4]; 0 min
  Intact peptide (%): 99.5%
[4]; 15 min
  Intact peptide (%): 98.65%
[4]; 45 min
  Intact peptide (%): 96.31%
[4]; 90 min
  Intact peptide (%): 92.98%
[4]; plasma from NHP, after 90 minutes incubation
  radioactive signal arising from intact peptide: > 92%
[3]
  potency (ability to activate the human GIP receptor) compared to native GIP or GIP(1-30): lower potency

## CC[C@H](C)[C@H](NC(=O)[C@H](CO)NC(=O)[C@H](Cc1ccc(O)cc1)NC(=O)[C@H](CC(=O)O)NC(=O)[C@H](CO)NC(=O)[C@@H](NC(=O)[C@H](Cc1ccccc1)NC(=O)[C@@H](NC(=O)CNC(=O)[C@H](CCC(=O)O)NC(=O)[C@H](C)NC(=O)[C@@H](N)Cc1ccc(O)cc1)[C@@H](C)O)[C@@H](C)CC)C(=O)N[C@@H](C)C(=O)N[C@@H](CCSC)C(=O)N[C@@H](CC(=O)O)C(=O)N[C@@H](CCCCN)C(=O)N[C@H](C(=O)N[C@@H](Cc1c[nH]cn1)C(=O)N[C@@H](CCC(N)=O)C(=O)N[C@@H](CCC(N)=O)C(=O)N[C@@H](CC(=O)O)C(=O)N[C@@H](Cc1ccccc1)C(=O)N[C@H](C(=O)N[C@@H](CC(N)=O)C(=O)N[C@@H](Cc1c[nH]c2ccccc12)C(=O)N[C@@H](CC(C)C)C(=O)N[C@@H](CC(C)C)C(=O)N[C@@H](C)C(=O)N[C@@H](CCC(N)=O)C(=O)N[C@@H](CCCCN)C(=O)NCC(=O)N[C@@H](CCCCN)C(=O)N[C@@H](CCCCN)C(=O)N[C@@H](CC(N)=O)C(=O)N[C@@H](CC(=O)O)C(=O)N[C@@H](Cc1c[nH]c2ccccc12)C(=O)N[C@@H](CCCCN)C(=O)N[C@@H](Cc1c[nH]cn1)C(=O)N[C@@H](CC(N)=O)C(=O)N[C@H](C(=O)N[C@H](C(=O)N[C@@H](CCC(N)=O)C(=O)O)[C@@H](C)O)[C@@H](C)CC)C(C)C)[C@@H](C)CC [SEQ ID NO: 1, YAEGTFISDYSIAMDKIHQQDFVNWLLAQKGKKNDWKHNITQ-OH]
[2]
  EC50: > 10 nM
[2]; read-out: EC50 hGCGR, 384-well format
  EC50: > 10 nM

## hGlucagon (from UniProt P01275 53-81) (ligand)
[5]
  EC50 hGIP R, cAMP formation (HTRF), 96-well format: > 10 nM
  EC50 hGIP R, cAMP formation (HTRF), 384-well format: > 10 nM
